Experimental data: US20160264649A1

Key:
Test in all cases: cell-based or functional assay
[1] = target: HIV-1 MGRM-Chronic-B-023 Env on pseudovirus (HIV-1)
HIV-1 APV-13 Env (HIV-1) = target: HIV-1 APV-13 Env (HIV-1)
[2] = target: HIV-1 MGRM-D-019 Env (HIV-1)
[3] = target: HIV-1 MGRM-AE-003 Env (HIV-1)
[4] = target: HIV-1 MGRM-C-002 Env on pseudovirus (HIV-1)
[5] = target: HIV-1 MGRM-Chronic-B-024 Env on pseudovirus (HIV-1)
[6] = target: HIV-1 LAVI_C22 Env on pseudovirus (HIV-1)
[7] = target: HIV-1 MGRM-F1-022 Env (HIV-1)
[8] = target: HIV-1 MGRM-AE-007 Env (HIV-1)
[9] = target: HIV-1 MGRM-G-025 Env (HIV-1)
[10] = target: HIV-1 94UG114 Env (HIV-1)
[11] = target: HIV-1 92UG024 Env (HIV-1)
[12] = target: HIV-1 MGRM-D-004 Env (HIV-1)
[13] = target: HIV-1 MGRM-D-003 Env (HIV-1)
[14] = target: HIV-1 MGRM-AE-005 Env (HIV-1)
[15] = target: HIV-1 MGRM-F1-023 Env (HIV-1)
[16] = target: HIV-1 MGRM-D-018 Env (HIV-1)
[17] = target: HIV-1 93TH305 Env on pseudovirus (HIV-1)
[18] = target: HIV-1 MGRM-D-026 Env (HIV-1)
[19] = target: HIV-1 MGRM-G-006 Env (HIV-1)
[20] = target: HIV-1 APV_13 Env on pseudovirus (HIV-1)
[21] = target: HIV-1 MGRM-C-001 Env on pseudovirus (HIV-1)
[22] = target: HIV-1 MGRM-F1-006 Env (HIV-1)
[23] = target: HIV-1 MGRM-AG-001 Env (HIV-1)
[24] = target: HIV-1 MGRM-G-011 Env (HIV-1)
[25] = target: HIV-1 MGRM-Chronic-B-003 Env on pseudovirus (HIV-1)
[26] = target: HIV-1 MGRM-G-009 Env (HIV-1)
[27] = target: HIV-1 MGRM-AE-006 Env (HIV-1)
[28] = target: HIV-1 MGRM-Chronic-B-008 Env on pseudovirus (HIV-1)
[29] = target: HIV-1 MGRM-G-013 Env (HIV-1)
[30] = target: HIV-1 MGRM-G-024 Env (HIV-1)
[31] = target: HIV-1 92TH021 Env (HIV-1)
[32] = target: HIV-1 MGRM-C-015 Env on pseudovirus (HIV-1)
[33] = target: HIV-1 MGRM-G-016 Env (HIV-1)
[34] = target: HIV-1 MGRM-G-001 Env (HIV-1)
[35] = target: HIV-1 SF162 Env on pseudovirus (HIV-1) (UniProt P19550)
[36] = target: HIV-1 6535.3 (Acute) Env on pseudovirus (HIV-1)
[37] = target: HIV-1 MGRM-Chronic-B-012 Env on pseudovirus (HIV-1)
HIV-1 APV-17 Env (HIV-1) = target: HIV-1 APV-17 Env (HIV-1)
[38] = target: HIV-1 IAVI-C22 Env (HIV-1)
[39] = target: HIV-1 LAVI_C3 Env on pseudovirus (HIV-1)
[40] = target: HIV-1 MGRM-F1-020 Env (HIV-1)
[41] = target: HIV-1 MGRM-C-006 Env on pseudovirus (HIV-1)
[42] = target: HIV-1 TRJ0.58 (Acute) Env on pseudovirus (HIV-1)
[43] = target: HIV-1 THR0.18 (Acute) Env on pseudovirus (HIV-1)
[44] = target: HIV-1 MGRM-D-020 Env (HIV-1)
[45] = target: HIV-1 MGRM-G-017 Env (HIV-1)
[46] = target: HIV-1 MGRM-Chronic-B-020 Env on pseudovirus (HIV-1)
[47] = target: HIV-1 MGRM-F1-018 Env (HIV-1)
[48] = target: HIV-1 MGRM-F1-012 Env (HIV-1)
[49] = target: HIV-1 MGRM-AE-004 Env (HIV-1)

Chain of 1443_C16 (PG16) (TCN-116) (antibody) (VH): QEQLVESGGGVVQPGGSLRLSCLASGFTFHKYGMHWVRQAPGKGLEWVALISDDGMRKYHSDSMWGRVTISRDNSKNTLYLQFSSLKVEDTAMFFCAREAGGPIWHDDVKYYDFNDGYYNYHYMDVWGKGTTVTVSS
Chain of 1443_C16 (PG16) (TCN-116) (antibody) (VL): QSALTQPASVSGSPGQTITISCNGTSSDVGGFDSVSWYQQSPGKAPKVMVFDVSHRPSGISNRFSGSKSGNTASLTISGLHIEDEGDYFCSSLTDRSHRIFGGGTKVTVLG

In the case of 1443_C16 (PG16) (TCN-116) (antibody), the IC50 [1] is reported as 0.13 µg/mL, the neutralization IC50 (HIV-1 APV-13 Env (HIV-1)) is reported as over 50 µg/mL and the neutralization IC90 (HIV-1 APV-13 Env (HIV-1)) is reported as over 50 µg/mL. The IC50 (µg/ml), pseudovirus neutralization [2] was 0.01 µg/mL, the IC50 (µg/ml), pseudovirus neutralization [3] was 0.03 µg/mL and the IC50 [4] was 28.3 µg/mL. It also gave an IC50 [5] of 0.01 µg/mL, an IC50 [6] of 0.02 µg/mL and an IC50 (pseudovirus neutralization) [7] of 0.08 µg/mL. The IC50 (µg/ml), pseudovirus neutralization [8] was 0.04 µg/mL, the IC50 (µg/ml), pseudovirus neutralization [9] was over 50 µg/mL and the IC50 (µg/ml), pseudovirus neutralization [10] was over 50 µg/mL. The IC50 (µg/ml), pseudovirus neutralization [11] was 24 µg/mL, the neutralization IC50 [11] was over 50 µg/mL and the neutralization IC90 [11] was over 50 µg/mL. For the same substance, the IC50 (µg/ml), pseudovirus neutralization [12] was 0.01 µg/mL, the IC50 (µg/ml), pseudovirus neutralization [13] was 0.01 µg/mL and the IC50 (µg/ml), pseudovirus neutralization [14] was 0.02 µg/mL. The IC50 (pseudovirus neutralization) [15] was over 50 µg/mL, the IC50 (µg/ml), pseudovirus neutralization [16] was 0.004 µg/mL and the IC50 [17] was 19.3 µg/mL. It also gave an IC50 (µg/ml), pseudovirus neutralization [18] of over 50 µg/mL, an IC50 (µg/ml), pseudovirus neutralization [19] of 2.42 µg/mL and an IC50 [20] of over 50 µg/mL. The IC50 [21] was 16.8 µg/mL, the IC50 (pseudovirus neutralization) [22] was 0.27 µg/mL and the IC50 (µg/ml), pseudovirus neutralization [23] was 0.03 µg/mL. It also gave an IC50 (µg/ml), pseudovirus neutralization [24] of 0.04 µg/mL, an IC50 [25] of 0.19 µg/mL and an IC50 (µg/ml), pseudovirus neutralization [26] of over 50 µg/mL. It also gave an IC50 (µg/ml), pseudovirus neutralization [27] of 0.03 µg/mL, an IC50 [28] of 0.73 µg/mL and an IC50 (µg/ml), pseudovirus neutralization [29] of over 50 µg/mL. For the same substance, the IC50 (µg/ml), pseudovirus neutralization [30] was 0.01 µg/mL, the IC50 (µg/ml), pseudovirus neutralization [31] was 0.1 µg/mL and the neutralization IC50 [31] was 0.127 µg/mL. It also gave a neutralization IC90 [31] of 23.4 µg/mL, an IC50 [32] of 0.26 µg/mL and an IC50 (µg/ml), pseudovirus neutralization [33] of 11.3 µg/mL. It also gave an IC50 (µg/ml), pseudovirus neutralization [34] of 0.15 µg/mL, an IC50 [35] of over 50 µg/mL and an IC50 [36] of 36.9 µg/mL. It also gave an IC50 [37] of 3.74 µg/mL, a neutralization IC50 (HIV-1 APV-17 Env (HIV-1)) of over 50 µg/mL and a neutralization IC90 (HIV-1 APV-17 Env (HIV-1)) of over 50 µg/mL. For the same substance, the neutralization IC50 [38] was 0.0687 µg/mL, the neutralization IC90 [38] was over 50 µg/mL and the IC50 [39] was 9.55 µg/mL. For the same substance, the IC50 (pseudovirus neutralization) [40] was 4.35 µg/mL, the IC50 [41] was 2.62 µg/mL and the IC50 [42] was 1.16 µg/mL. The IC50 [43] was 1.34 µg/mL, the IC50 (µg/ml), pseudovirus neutralization [44] was 16.3 µg/mL and the IC50 (µg/ml), pseudovirus neutralization [45] was 0.02 µg/mL. It also gave an IC50 [46] of over 50 µg/mL, an IC50 (pseudovirus neutralization) [47] of 0.01 µg/mL and an IC50 (pseudovirus neutralization) [48] of 0.003 µg/mL. For the same substance, the IC50 (µg/ml), pseudovirus neutralization [49] was 0.002 µg/mL.
Work on 4E10 (antibody) yielded an IC50 [1] of 27.9 µg/mL, a neutralization IC50 (HIV-1 APV-13 Env (HIV-1)) of 3.8 µg/mL and an IC50 (µg/ml), pseudovirus neutralization [2] of 0.04 µg/mL. For the same substance, the IC50 (µg/ml), pseudovirus neutralization [3] was 0.34 µg/mL, the IC50 [4] was 18.2 µg/mL and the IC50 [5] was 9.19 µg/mL. For the same substance, the IC50 [6] was 2.02 µg/mL, the IC50 (pseudovirus neutralization) [7] was 1.01 µg/mL and the IC50 (µg/ml), pseudovirus neutralization [8] was 0.45 µg/mL. The IC50 (µg/ml), pseudovirus neutralization [9] was 1.7 µg/mL, the IC50 (µg/ml), pseudovirus neutralization [10] was 9.72 µg/mL and the IC50 (µg/ml), pseudovirus neutralization [11] was 2.17 µg/mL. The neutralization IC50 [11] was 1.32 µg/mL, the neutralization IC90 [11] was 23.7 µg/mL and the IC50 (µg/ml), pseudovirus neutralization [12] was 1.58 µg/mL. It also gave an IC50 (µg/ml), pseudovirus neutralization [13] of 2.49 µg/mL, an IC50 (µg/ml), pseudovirus neutralization [14] of 0.47 µg/mL and an IC50 (pseudovirus neutralization) [15] of 0.44 µg/mL. For the same substance, the IC50 (µg/ml), pseudovirus neutralization [16] was 3.9 µg/mL, the IC50 [17] was 12.3 µg/mL and the IC50 (µg/ml), pseudovirus neutralization [18] was 2.95 µg/mL. The IC50 (µg/ml), pseudovirus neutralization [19] was 1.23 µg/mL, the IC50 [20] was 7.33 µg/mL and the IC50 [21] was 5.66 µg/mL. For the same substance, the IC50 (pseudovirus neutralization) [22] was 1.01 µg/mL, the IC50 (µg/ml), pseudovirus neutralization [23] was 1.12 µg/mL and the IC50 (µg/ml), pseudovirus neutralization [24] was 1.44 µg/mL. For the same substance, the IC50 [25] was 3.5 µg/mL, the IC50 (µg/ml), pseudovirus neutralization [26] was 1.34 µg/mL and the IC50 (µg/ml), pseudovirus neutralization [27] was 0.23 µg/mL. For the same substance, the IC50 [28] was 16.7 µg/mL, the IC50 (µg/ml), pseudovirus neutralization [29] was 1.15 µg/mL and the IC50 (µg/ml), pseudovirus neutralization [30] was 1.57 µg/mL. It also gave an IC50 (µg/ml), pseudovirus neutralization [31] of 1.17 µg/mL, a neutralization IC50 [31] of 1.9 µg/mL and a neutralization IC90 [31] of 23.5 µg/mL. It also gave an IC50 [32] of 2.52 µg/mL, an IC50 (µg/ml), pseudovirus neutralization [33] of 1.02 µg/mL and an IC50 (µg/ml), pseudovirus neutralization [34] of 2.04 µg/mL. The IC50 [35] was 4.28 µg/mL, the IC50 [36] was 1.23 µg/mL and the IC50 [37] was 48 µg/mL. For the same substance, the neutralization IC50 (HIV-1 APV-17 Env (HIV-1)) was 5.1 µg/mL, the neutralization IC50 [38] was 1.02 µg/mL and the neutralization IC90 [38] was 16.4 µg/mL. For the same substance, the IC50 [39] was 2.85 µg/mL, the IC50 (pseudovirus neutralization) [40] was 0.66 µg/mL and the IC50 [41] was 4.94 µg/mL. The IC50 [42] was 11.9 µg/mL, the IC50 [43] was 4.68 µg/mL and the IC50 (µg/ml), pseudovirus neutralization [44] was over 50 µg/mL. The IC50 (µg/ml), pseudovirus neutralization [45] was 1.14 µg/mL, the IC50 [46] was 2.45 µg/mL and the IC50 (pseudovirus neutralization) [47] was 3.6 µg/mL. For the same substance, the IC50 (pseudovirus neutralization) [48] was 0.37 µg/mL and the IC50 (µg/ml), pseudovirus neutralization [49] was 1.27 µg/mL.
